These results are taken from patent publication US20260216095A1, “NANOSHEET-HYDROGEL COMPOSITES AND METHODS OF US” (Rutgers, The State University of New Jersey, priority 2023, published 2026).

The assay concerns aggrecan (ACAN). The experiment in a line: Rat nucleotomy model, immunohistochemistry for aggrecan. Type of assay: in vivo, Sprague-Dawley rats. Conditions: six weeks. As to the method: Animal Model Nucleotomy: In total, eight-weeks-old female Sprague-Dawley rats (220-240 g) were purchased from Orient Bio Inc., Korea, and were acclimatized for a week at a life/dark cycle of 12/12 h (temperature; 22±1° C. and relative humidity; 50%±1%) and free approach to food and water. The animal experiments were performed according to the direction approved by the Institutional Animal Care and Use Committee (IACUC) of CHA Bundang Medical Center (IACUC 200141). At the beginning of the surgery, the peritoneal site was sterilized with 70% alcohol. Afterward, rats were thoroughly anesthetized with a general anesthesia mixture of Zoletil® (50 mg/kg Virbac Laboratories, France) and Rompun® (10 mg/kg, Bayer, Korea) injected intraperitoneally. […]
Immunohistochemistry: After six weeks of implantation, rats were euthanized via excess carbon dioxide inhalation and coccygeal discs were collected, and immunohistochemical analysis was performed for aggrecan (disc matrix component), collagen type II (a component of disc NP matrix), CGRP (pain-marker), Iba1 (pan-macrophage), CD86 (M1-macrophage) and CD163(M2-macrophage). […] The sections were mounted and finally examined using a fluorescence microscope (Zeiss 880, Germany and Leica SP5, Germany). The percentage of the positive area and cell number relative to DAPI was calculated by using ImageJ Software.

B1: GDF-5 alone: growth differentiation factor 5 (Peprotech, Catalog No. 120-01), given as saline solution (protein, UniProt P43026 382-501, looked up)
Growth/differentiation factor …: APLATRQGKRPSKNLKARCSRKALHVNFKDMGWDDWIIAPLEYEAFHCEGLCEFPLRSHLEPTNHAVIQTLMNSMDPESTPPTCCVPTRLSPISILFIDSANNVVYKQYEDMVVESCGCR
Take B1: the “aggrecan expression (IHC)” value is on record as “decreased aggrecan expression”.
